Source: article PMC5422253, “Cryo-EM Structure of a Relaxase Reveals the Molecular Basis of DNA Unwinding during Bacterial Conjugation”

Tests used:
TraI A1105W/M795A = TraI A1105W/M795A (Escherichia coli conjugative plasmid R1?, UniProt Q6TDU5 1-1756, A1105W;M795A); test: fluorescence anisotropy; higher affinity than the single mutants A1105W and M795A; Kd only in figure; Anisotropy: 10 nM 22-merAlexa488, 50 mM Tris pH 7.2, 100 mM NaCl, 25 C, 20 min; complexes for gel filtration: protein and ssDNA mixed on ice 10 min (stocks in 50 mM Tris pH 7.2, 100 mM NaCl); EPR complexes: PBS pH 7.4, 1 mM MgCl2; conditions: protein: recombinant; tags: N-terminal His6 with enterokinase site; label: 3'-Alexa488
TraI relaxase wild-type [1] = biological target: T1, TraI relaxase wild-type (Escherichia coli conjugative plasmid R1 …, UniProt Q6TDU5 1-1756); test: size exclusion chromatography; protein:ssDNA 1:1, 2:1, 4:1; TraI dimer forms on 49-mer; Anisotropy: 10 nM 22-merAlexa488, 50 mM Tris pH 7.2, 100 mM NaCl, 25 C, 20 min; complexes for gel filtration: protein and ssDNA mixed on ice 10 min (stocks in 50 mM Tris pH 7.2, 100 mM NaCl); EPR complexes: PBS pH 7.4, 1 mM MgCl2; conditions: protein: recombinant; tags: N-terminal His6 with enterokinase site; inverted repeat 5' of nic
TraI relaxase wild-type [2] = biological target: T1, TraI relaxase wild-type; test: limited trypsin proteolysis; 1:1 complex; pattern as with 22-mer; Anisotropy: 10 nM 22-merAlexa488, 50 mM Tris pH 7.2, 100 mM NaCl, 25 C, 20 min; complexes for gel filtration: protein and ssDNA mixed on ice 10 min (stocks in 50 mM Tris pH 7.2, 100 mM NaCl); EPR complexes: PBS pH 7.4, 1 mM MgCl2; conditions: protein: recombinant; tags: N-terminal His6 with enterokinase site
TraI1-1475 = biological target: T2, TraI1-1475 (Escherichia coli conjugative plasmid R1?, UniProt Q6TDU5 1-1475); test: size exclusion chromatography; after 365 nm photocleavage, peak V; Anisotropy: 10 nM 22-merAlexa488, 50 mM Tris pH 7.2, 100 mM NaCl, 25 C, 20 min; complexes for gel filtration: protein and ssDNA mixed on ice 10 min (stocks in 50 mM Tris pH 7.2, 100 mM NaCl); EPR complexes: PBS pH 7.4, 1 mM MgCl2; conditions: protein: recombinant; tags: N-terminal His6 with enterokinase site; label: 5'-Cy5; inverted repeat
T2 sequence: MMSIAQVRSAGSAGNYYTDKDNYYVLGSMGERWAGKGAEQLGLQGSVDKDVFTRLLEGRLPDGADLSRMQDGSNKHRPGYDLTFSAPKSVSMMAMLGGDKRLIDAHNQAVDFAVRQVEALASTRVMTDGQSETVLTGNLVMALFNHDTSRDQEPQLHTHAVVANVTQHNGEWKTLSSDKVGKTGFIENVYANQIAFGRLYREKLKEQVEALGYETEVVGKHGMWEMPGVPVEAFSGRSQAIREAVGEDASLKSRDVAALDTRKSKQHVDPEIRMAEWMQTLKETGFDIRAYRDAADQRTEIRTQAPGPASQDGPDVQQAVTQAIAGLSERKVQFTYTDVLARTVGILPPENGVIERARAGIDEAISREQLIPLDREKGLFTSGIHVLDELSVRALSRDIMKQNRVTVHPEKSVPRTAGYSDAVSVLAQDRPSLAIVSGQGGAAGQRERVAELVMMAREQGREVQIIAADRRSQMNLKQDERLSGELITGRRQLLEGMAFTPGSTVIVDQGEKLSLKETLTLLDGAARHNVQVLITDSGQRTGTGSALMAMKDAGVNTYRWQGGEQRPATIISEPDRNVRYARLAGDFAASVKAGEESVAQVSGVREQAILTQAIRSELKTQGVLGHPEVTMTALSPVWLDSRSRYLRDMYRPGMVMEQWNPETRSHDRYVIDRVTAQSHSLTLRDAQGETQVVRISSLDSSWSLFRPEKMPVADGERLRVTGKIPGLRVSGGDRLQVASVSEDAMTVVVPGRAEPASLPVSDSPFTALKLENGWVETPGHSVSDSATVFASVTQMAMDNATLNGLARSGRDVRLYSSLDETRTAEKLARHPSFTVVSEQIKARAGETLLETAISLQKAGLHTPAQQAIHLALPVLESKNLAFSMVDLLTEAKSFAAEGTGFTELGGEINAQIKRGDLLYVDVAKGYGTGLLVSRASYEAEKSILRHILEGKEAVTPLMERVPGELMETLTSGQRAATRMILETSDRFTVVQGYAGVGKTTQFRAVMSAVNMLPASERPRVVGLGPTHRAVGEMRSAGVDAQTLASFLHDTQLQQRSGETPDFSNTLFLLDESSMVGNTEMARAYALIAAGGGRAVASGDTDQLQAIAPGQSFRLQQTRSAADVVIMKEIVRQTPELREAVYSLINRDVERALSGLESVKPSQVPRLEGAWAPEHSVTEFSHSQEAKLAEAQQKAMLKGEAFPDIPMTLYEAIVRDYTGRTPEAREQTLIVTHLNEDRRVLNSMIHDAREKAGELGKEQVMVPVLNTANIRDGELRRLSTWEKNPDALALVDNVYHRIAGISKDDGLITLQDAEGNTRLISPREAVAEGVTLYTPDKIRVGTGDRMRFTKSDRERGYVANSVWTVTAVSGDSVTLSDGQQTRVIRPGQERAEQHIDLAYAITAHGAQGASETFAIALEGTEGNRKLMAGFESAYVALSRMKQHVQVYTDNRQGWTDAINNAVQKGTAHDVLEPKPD

TraI-MBP = TraI-MBP (Escherichia coli conjugative plasmid R1?, UniProt Q6TDU5 1-1756); test: size exclusion chromatography; after 365 nm photocleavage, peak IV; Anisotropy: 10 nM 22-merAlexa488, 50 mM Tris pH 7.2, 100 mM NaCl, 25 C, 20 min; complexes for gel filtration: protein and ssDNA mixed on ice 10 min (stocks in 50 mM Tris pH 7.2, 100 mM NaCl); EPR complexes: PBS pH 7.4, 1 mM MgCl2; conditions: protein: recombinant; tags: N-terminal His6 with enterokinase site; C-terminal MBP via TPGSP linker; label: 3'-6-FAM
TraI relaxase wild-type [3] = biological target: T1, TraI relaxase wild-type; test: limited trypsin proteolysis; open, protease-sensitive conformer; Anisotropy: 10 nM 22-merAlexa488, 50 mM Tris pH 7.2, 100 mM NaCl, 25 C, 20 min; complexes for gel filtration: protein and ssDNA mixed on ice 10 min (stocks in 50 mM Tris pH 7.2, 100 mM NaCl); EPR complexes: PBS pH 7.4, 1 mM MgCl2; conditions: protein: recombinant; tags: N-terminal His6 with enterokinase site; inverted repeat

Does GGTGCTTTTGGTGGTGAGAACC (ssDNA) [22-merAlexa488] bind (TraI A1105W/M795A)?
Result: binds

Does GCAAAAACTTGTTTTTGCGTGGGGTGTGGTGCTTTTGGTGGTGAGAACC (ssDNA) [49-mer oriT] bind (TraI relaxase wild-type [1])?
Result: binds

Does GCTTTTGGTGGTGAGAACC (ssDNA) [19-mer] bind (TraI relaxase wild-type [2])?
Result: binds

Does GCAAAAACTTGTTTTTGCGTGGGGTGTGGT (ssDNA, 3' end from PC linker photocleavage) [Cy5-30-mer photocleavage product] bind (TraI1-1475)?
Result: binds

Does GCTTTTGGTGGTGAGAACC (ssDNA, 5' end from PC linker photocleavage) [19-mer-6-FAM photocleavage product] bind (TraI-MBP)?
Result: binds

Does GCAAAAACTTGTTTTTGCGTGGGGTGTGGT (ssDNA) [30-mer] bind (TraI relaxase wild-type [3])?
Result: binds
